Source: patent US20030073199A1 (SCHERING, published 2003)

T1: AK155 receptor complex (α-subunit CPNM1 / IL-20Rα and β-subunit IL-10Rβ), endogenous on cell lines (UniProt Q9UHF4 30-553; Q08334 20-325, limits assumed)
T1 sequence (looked up) 1: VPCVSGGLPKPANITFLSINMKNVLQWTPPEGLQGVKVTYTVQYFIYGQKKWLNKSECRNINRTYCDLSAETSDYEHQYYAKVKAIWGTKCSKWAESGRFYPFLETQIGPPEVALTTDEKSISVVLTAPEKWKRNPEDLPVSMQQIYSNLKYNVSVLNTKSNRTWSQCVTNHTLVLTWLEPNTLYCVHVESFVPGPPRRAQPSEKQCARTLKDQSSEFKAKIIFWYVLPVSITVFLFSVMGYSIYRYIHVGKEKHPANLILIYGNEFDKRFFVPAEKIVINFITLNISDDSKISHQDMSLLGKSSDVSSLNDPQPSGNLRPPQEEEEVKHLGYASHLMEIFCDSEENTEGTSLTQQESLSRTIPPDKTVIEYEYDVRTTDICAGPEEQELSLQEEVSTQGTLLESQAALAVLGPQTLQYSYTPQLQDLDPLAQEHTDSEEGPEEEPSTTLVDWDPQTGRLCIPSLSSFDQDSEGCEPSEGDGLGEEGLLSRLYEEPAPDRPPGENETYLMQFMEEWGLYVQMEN
T1 sequence (looked up) 2: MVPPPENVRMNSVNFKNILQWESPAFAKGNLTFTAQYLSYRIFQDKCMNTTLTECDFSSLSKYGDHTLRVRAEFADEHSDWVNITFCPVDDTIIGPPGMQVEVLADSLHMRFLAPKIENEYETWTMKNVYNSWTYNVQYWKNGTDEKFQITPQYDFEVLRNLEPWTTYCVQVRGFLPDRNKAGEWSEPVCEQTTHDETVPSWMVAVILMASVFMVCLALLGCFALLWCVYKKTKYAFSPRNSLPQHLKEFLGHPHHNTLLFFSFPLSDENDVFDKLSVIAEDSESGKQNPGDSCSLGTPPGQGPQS


Tests used:
[1] = target: T1, AK155 receptor complex (α-subunit CPNM1 …); assay: cell-based or functional assay
[2] = target: the molecule itself; assay: SDS-PAGE and western blot of COS-7 cell extracts with and without denaturation (about 36 kDa against about 19 kDa)
Source text: Further evidence for the dimeric state of AK155 was provided by analysis of AK155 extracted from mammalian cells. AK155 was cloned and expressed using the eukaryotic expression vector pME18S in COS-7 cells, where the protein was cloned with a FLAG sequence. The cells were extracted and the extracted protein was loaded as is, or heated with reductant, prior to loading on the electrophoresis gel. AK155 was not purified prior to analysis by SDS PAGE. Detection was by rabbit antiserum prepared against AK155 or by anti-FLAG monoclonal antibody.

fold increase of IL-8 concentration, HaCaT cells, with against without AK155 [1] [fold] | Binder | binding result [2]
5 | AK155 (preparation not stated) (ligand) KHKQSSFTKSCYPRGTLSQAVDALYIKAAWLKATIPEDRIKNIRLLKKKTKKQFMKNCQFQEQLLSFFMEDVFGQLQLQGCKKIRFVEDFHSLRQKLSHCISCASSAREMKSITRMKRIFYRIGNKGIYKAISELDILLSWIKKLLESSQ | 
 | AK155 cloned with a FLAG sequence, expressed in COS-7 cells from pME18S (ligand, not shown: small tags and cut ends, Analysed unpurified in COS-7 cell extracts; also called FLAG-tagged AK155) KHKQSSFTKSCYPRGTLSQAVDALYIKAAWLKATIPEDRIKNIRLLKKKTKKQFMKNCQFQEQLLSFFMEDVFGQLQLQGCKKIRFVEDFHSLRQKLSHCISCASSAREMKSITRMKRIFYRIGNKGIYKAISELDILLSWIKKLLESSQ | binds
